The values that follow come from article PMC5984683 (Cancer research, 2018).

For assay [1], the target named is T1, full-length recombinant Fzd7 (human, UniProt O75084 33-574). Briefly: co-IP.
Assay [2] concerns the target T1, full-length recombinant Fzd7. Nature of the assay: co-IP. The source holds these as a separate data set.

Positions count from the first letter of the chain named. In names and notes the source's numbering stands. Where two headings read alike, the source gives them in different places.

For the molecule DAVEEGDWTATVVDQQDCTLSLQLTTPANA [TG2 peptide 81[residues removed]110], in assay [1], the binding result is given as “binds”.

B1: full length recombinant TG2 (enzyme, UniProt P21980 1-687, looked up)
chain: MAEELVLERCDLELETNGRDHHTADLCREKLVVRRGQPFWLTLHFEGRNYEASVDSLTFSVVTGPAPSQEAGTKARFPLRDAVEEGDWTATVVDQQDCTLSLQLTTPANAPIGLYRLSLEASTGYQGSSFVLGHFILLFNAWCPADAVYLDSEEERQEYVLTQQGFIYQGSAKFIKNIPWNFGQFEDGILDICLILLDVNPKFLKNAGRDCSRRSSPVYVGRVVSGMVNCNDDQGVLLGRWDNNYGDGVSPMSWIGSVDILRRWKNHGCQRVKYGQCWVFAAVACTVLRCLGIPTRVVTNYNSAHDQNSNLLIEYFRNEFGEIQGDKSEMIWNFHCWVESWMTRPDLQPGYEGWQALDPTPQEKSEGTYCCGPVPVRAIKEGDLSTKYDAPFVFAEVNADVVDWIQQDDGSVHKSINRSLIVGLKISTKSVGRDEREDITHTYKYPEGSSEEREAFTRANHLNKLAEKEETGMAMRIRVGQSMNMGSDFDVFAHITNNTAEEYVCRLLLCARTVSYNGILGPECGTKYLLNLNLEPFSEKSVPLCILYEKYRDCLTESNLIKVRALLVEPVINSYLLAERDLYLENPEIKIRILGEPKQKRKLVAEVSLQNPLPVALEGCTFTVEGAGLTEEQKTVEIPDPVEAGEEVKVRMDLLPLHMGLHKLVVNFESDKLKAVKGFRNVIIGPA
Consider B1, for which the binding result in assay [2] is “binds”.

B2: recombinant mutant TG2 (C277A) (enzyme)
chain: B1 chain with C277A
In the case of B2, in assay [2], the binding result is on record as “binds”.
